Publication PMC6131177

Tests used:
[1] = biological target: T1, Bacteriorhodopsin (Halobacterium salinarum S9), P02945; assay: circular dichroism in the visible range; bR in PMND (cE3D1 nanodisc assembled directly from PM), SEC-purified early fractions 1 to 6; 700-400 nm, 20 °C; a biphasic signal marks the trimer; conditions: remark: other sources report otherwise
T1 chain: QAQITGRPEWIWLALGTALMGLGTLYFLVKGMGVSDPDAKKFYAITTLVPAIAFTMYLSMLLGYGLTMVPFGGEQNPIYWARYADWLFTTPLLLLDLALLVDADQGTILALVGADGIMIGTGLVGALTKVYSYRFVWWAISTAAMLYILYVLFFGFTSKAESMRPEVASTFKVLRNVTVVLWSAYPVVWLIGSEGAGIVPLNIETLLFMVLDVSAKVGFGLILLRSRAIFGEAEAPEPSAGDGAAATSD

[2] = biological target: T1, Bacteriorhodopsin (Halobacterium …); assay: circular dichroism in the visible range; bR in native purple membrane (PM); 700-400 nm, 20 °C; a biphasic signal marks the trimer; conditions: remark: other sources report otherwise

B1: Bacteriorhodopsin, P02945 14-262 (natural protein)
chain: QAQITGRPEWIWLALGTALMGLGTLYFLVKGMGVSDPDAKKFYAITTLVPAIAFTMYLSMLLGYGLTMVPFGGEQNPIYWARYADWLFTTPLLLLDLALLVDADQGTILALVGADGIMIGTGLVGALTKVYSYRFVWWAISTAAMLYILYVLFFGFTSKAESMRPEVASTFKVLRNVTVVLWSAYPVVWLIGSEGAGIVPLNIETLLFMVLDVSAKVGFGLILLRSRAIFGEAEAPEPSAGDGAAATSD
modifications: here or on the partner: retinal Schiff base (residue not given); retinal Schiff base (residue not given)
stoichiometry N [1]: 3
stoichiometry N [2]: 3
